Experimental data: patent US20230355533A1, “BIODEGRADABLE POLYCAPROLACTONE CAPSULE FOR ANTIBODY RELEASE AND DEGRADATION” (University Of Cincinnati, priority 2022, published 2023)

Key:
TNF-α stimulated HUVECs = assay: IL-6 ELISA assay; assay type: cell-based, Human; conditions: Dex 33 μM, 24 h pretreatment, then 20 ng/mL TNF-α 24 h
Experimental: Human primary umbilical vein endothelial cells (HUVECs) were maintained in EBMTM-2 Basal Medium and EGMTM-2 SingleQuots™ Supplements (Lonza, Switzerland). HUVECs were grown in the cell incubator containing 5% CO2 at 37° C. When the cells were grown to 90% confluence, they were inoculated in 24-well plates. Briefly, 0.4 mL of HUVECs suspensions (8×104 HUVECs per well) were seeded in 24-well plates and incubated at 37° C, 5% CO2 for 24 h. […] After 24 h, all the conditions except the medium only were incubated with 20 ng/mL TNF-α for 24 h. […] At the end of experiments, the cell medium was collected and centrifuged at 2,000×g for 10 min to remove the particulate/debris materials. Then, supernatant was collected and stored at −20° C. until used. Each sample was pre-diluted using a standard dilution buffer to keep the sample concentrations within the range of standard curve. The concentration of pro-inflammatory cytokine (IL-6) in the cell culture supernatant was analyzed by the ELISA assay according to the manufacturer's recommendation (Invitrogen® human IL-6 ELISA kit). All tests were done in triplicate.

[1] = Bev permeability across PCL membrane, vertical permeability column; assay type: physicochemical; conditions: 0.05 PEG PCL membrane, donor 50 mg/mL, area 0.78 cm^2
Experimental: The permeability experiments were conducted using a vertical permeability column. The donor side was filled with 200 μL of 50 mg/mL Bev solution and the receiver side was filled with 5 mL of PBS. […] The membranes were soaked in DI water for 24 h to remove the PEG and then placed in the column without drying. Once the membrane was securely placed between the donor and receiver sections, 200 μL of the donor solution was loaded and then the opening was sealed off to reduce evaporation altering the concentration of the donor and receiver solutions. 500 μL of the receiver and 10 μL of the donor solution were removed every 72 h to check the concentration using UV-Vis. The removed solutions were replaced by fresh PBS for the receiver solution and the donor was replaced by fresh donor solution or completely replaced depending on the remaining concentration.
After 12 days, the mass of Bev that permeated the membrane was plotted against time to get dQ/dt in the equation: […]
where Ci is the initial concentration (donor solution concentration), P is the permeability coefficient, and A is the area of the exposed membrane.

[2] = Bev partition coefficient in PCL membrane; assay type: physicochemical; conditions: equilibrium solution of 20 mg/mL
Experimental: The partition coefficient K is required for the release kinetics model equation. […] The membranes were soaked in 200 μL of PBS for 48 h. After 48 h the membranes were blotted with a Kimwipe to remove surface liquid and then weighed to determine the wet mass of the membrane. The membranes were then dried overnight in a chemical hood. The dry membranes were then placed in 200 μL of an equilibrium Bev solution for 72 h to allow the membranes to absorb the Bev from the solution. After 72 h the membranes were removed from the equilibrium, blotted, and placed in 200 μL of fresh PBS to extract Bev for 48 h. This extraction process was repeated until the amount extracted was 10% of the first extraction. The remaining equilibrium solution and all extraction solutions were analyzed using UV-Vis to determine the Bev concentration. The partition coefficient was then determined using the equation below.
where Me is the total mass extracted, W is the wet mass of the membrane, Meq is the amount of Bev left in the equilibrium solution, V is the volume of water left in the equilibrium solution, and ρ is the density of the solution.

[3] = Bev drug release kinetics model (cylindrical reservoir); conditions: calculated from Stokes-Einstein diffusion coefficient and hindrance factor
Text: The equation used to model the release profile is
where Mt is the mass released at time t, M∞, is the mass loaded in the implant, Ri is the inner radius of the implant, Ro is outer radius of the implant, De is the effective diffusivity, K is the partition coefficient, and L is the length of the implant. This equation models Fick's law of diffusion of molecules from the lumen of a cylindrical implant through a membrane wall. Ro, Ri, and L can all be measured from the implants, but De and K must be determined experimentally or calculated from other parameters that can be determined experimentally to create this model. K may be determined experimentally, as described herein. To find De, permeability, Stokes-Einstein diffusion, hindrance factor for diffusion, hindrance factor, and the restrictive factor all were determined experimentally or calculated.
The permeability of Bev across the PCL membrane can be described by […]
where kB is the Boltzmann constant, T is the temperature in Kelvin, η is the viscosity of water at 25° C., and r is the hydrodynamic radius of Bev. The overall hindrance factor for diffusion, H, is expressed as: […]
where λ is the ratio of permeant radius to pore radius and Kt, the hinderance factor, is calculated by: […]
The last value that needs to be determined for Equation 3 is effective diffusivity (De). De can be determined from the equation: […]

Substance | IL-6 level in cell culture medium compared to TNF-α stimulated HUVECs (condition 2) (TNF-α stimulated HUVECs) | Bev permeated across the membrane [1] [µg/day] | partition coefficient K [2] | effective diffusion coefficient De [3]
Dexamethasone sodium phosphate [free Dex] | not significantly decreased | – | – | –
Bevacizumab | – | 42.5 | 0.515 | 5.59 × 10^−6 cm^2/day
